The values that follow come from patent publication US9783610B2.

Assay [1] deals with human TEM1 (endosialin, CD248) on cells (human) (UniProt Q9HCU0). The experiment in a line: live cell-based ELISA, binding to MS1-TEM1 minus binding to MS1 cells; positive control. (In general: ELISA stands for enzyme-linked immunosorbent assay.)
For assay [2] the target is unchanged. In words: live cell-based ELISA, binding to MS1-TEM1 minus binding to MS1 cells, HA-HRP detection.
For assay [3] the target is unchanged. In words: live cell-based ELISA on MS1-TEM1 cells; reference scFv78.
Assay [4] concerns the target T1, human TEM1 recombinant protein fused to GST (rhTEM1-GST) (human) (UniProt Q9HCU0).
T1 sequence: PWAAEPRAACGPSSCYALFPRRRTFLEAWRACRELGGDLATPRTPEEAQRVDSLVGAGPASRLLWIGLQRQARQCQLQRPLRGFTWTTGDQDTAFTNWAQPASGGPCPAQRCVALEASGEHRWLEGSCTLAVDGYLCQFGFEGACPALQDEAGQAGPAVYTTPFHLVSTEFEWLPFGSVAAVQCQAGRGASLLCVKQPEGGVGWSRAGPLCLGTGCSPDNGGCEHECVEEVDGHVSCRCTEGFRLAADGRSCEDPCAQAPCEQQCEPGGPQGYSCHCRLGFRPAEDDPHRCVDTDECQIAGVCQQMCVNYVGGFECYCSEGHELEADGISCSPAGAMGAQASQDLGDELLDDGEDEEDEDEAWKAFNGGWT
In words: ELISA on plate-coated rhTEM1-GST, KD=2[Ab']t-[Ab]t.

The target of assay [5] is T1, human TEM1 recombinant protein fused to GST (rhTEM1-GST) (human). In words: ELISA on plate-coated rhTEM1-GST, KD=2[Ab']t-[Ab]t. The source holds these as a separate data set.

Several values for one entry are separate records, joined by “and”; a condition that tells them apart may be missing. Equal entries are not always repeated. Where two headings read alike, the source gives them in different places.

In assay [1], MORAB004 antibody (Morphotek, Inc) registered a Kd of 0.27 nM.

B1: Anti-TEM1 scFv78-CH3 (protein)
chain: VQPVLTQPPSLSASPGASASLTCTLRSDINVGSYRISWYQQKPGSPPQYLLSYISDSDKQKGSGVPSRFSGSKDASANAGILLISGLQSEDEADYYCMIWHNSAGVFGGGTKLTVLGGGSSRSSSSGGGGSGGGGQVQLQESGGTLVQPGGSLRLSCEASGFTFSNYAMGWVRQTPGKGLEWLSAIRKSGTTTYYADSVKGRFIISRDNSKNTLYLQMNRLRVGDTATYYCATHPIAGYWGQGTLVTVSSASTKGPSVGGGSLIKDKTHTCPPCPSKAKGQPREPQVYTLPPSREEMTKNQVSLTCLVKGFYPSDIAVEWESNGQPENNYKTTPPVLDSDGSFFLYSKLTVDKSRWQQGNVFSCSVMHEALHNHYTQKSLSLSPGK
The molecule B1 registered a Kd in assay [2] of 0.34 nM. In assay [3], this molecule had a fold lower KD than scFv78 of 5 fold.

B2: Anti-TEM1 scFv78-minibody (scFv)
chain: VQPVLTQPPSLSASPGASASLTCTLRSDINVGSYRISWYQQKPGSPPQYLLSYISDSDKQKGSGVPSRFSGSKDASANAGILLISGLQSEDEADYYCMIWHNSAGVFGGGTKLTVLGGGSSRSSSSGGGGSGGGGQVQLQESGGTLVQPGGSLRLSCEASGFTFSNYAMGWVRQTPGKGLEWLSAIRKSGTTTYYADSVKGRFIISRDNSKNTLYLQMNRLRVGDTATYYCATHPIAGYWGQGTLVTVSSASTKGPSVGGGSLIKDKTHTCPPCPAPEL
Regarding B2, in assay [2], the Kd was 0.45 nM. The molecule further yielded a fold lower KD than scFv78 in assay [3] of 5 fold.

B3: scFv-78 (scFv)
scFv: VQPVLTQPPSLSASPGASASLTCTLRSDINVGSYRISWYQQKPGSPPQYLLSYISDSDKQKGSGVPSRFSGSKDASANAGILLISGLQSEDEADYYCMIWHNSAGVFGGGTKLTVLGGGSSRSSSSGGGGSGGGGQVQLQESGGTLVQPGGSLRLSCEASGFTFSNYAMGWVRQTPGKGLEWLSAIRKSGTTTYYADSVKGRFIISRDNSKNTLYLQMNRLRVGDTATYYCATHPIAGYWGQGTLVTVSSASTKGPS
For B3, the Kd was 4.3 nM in assay [4]; 5.8 nM and 4.5 nM and 2.8 nM in assay [5].

B4: scFv78 (expressed in 293F cells, purified on anti-HA beads) (scFv)
scFv: B3 scFv
In assay [2], B4 returned a Kd of 2.08 nM.

As a reminder, the Kd is the free concentration of one partner at which half of the binding sites on the other are occupied at equilibrium, for simple one-to-one binding.
